According to article PMC10216364, “Structural Insight into the Mechanism of σ32-Mediated Transcription Initiation of Bacterial RNA Polymerase” (Biomolecules, 2023):

Columns and labels:
[1] = biological target: RNA polymerase core enzyme;chimera sigma32-28 (E. coli;E. coli) (UniProt P0A7Z4+P0A8V2+P0A8T7+P0A800+P0AGB3); assay: fluorescence polarization; conditions: apparent Kd; FP: 10 mM Tris-HCl pH 7.7, 100 mM NaCl, 1 mM DTT, 1% glycerol, 0.025% Tween-20, 5 nM DNA, 10-320 nM holoenzyme, room temperature, 5 min; stopped-flow: 10 mM …
[2] = biological target: RNA polymerase core enzyme;chimera sigma32-38 (E. coli;E. coli) (UniProt P0A7Z4+P0A8V2+P0A8T7+P0A800+P0AGB3); assay: fluorescence polarization; conditions: apparent Kd; FP: 10 mM Tris-HCl pH 7.7, 100 mM NaCl, 1 mM DTT, 1% glycerol, 0.025% Tween-20, 5 nM DNA, 10-320 nM holoenzyme, room temperature, 5 min; stopped-flow: 10 mM …
[3] = biological target: RNA polymerase core enzyme;sigma32 R268A (E. coli;E. coli, UniProt P0A7Z4;P0A8V2;P0A8T7;P0A800;P0AGB3 1-329;1-1342;1-1407;1-91;1-284, |R268A); assay: fluorescence polarization; apparent Kd; FP: 10 mM Tris-HCl pH 7.7, 100 mM NaCl, 1 mM DTT, 1% glycerol, 0.025% Tween-20, 5 nM DNA, 10-320 nM holoenzyme, room temperature, 5 min; stopped-flow: 10 mM Tris-HCl pH 7.7, 20 mM NaCl, 10 mM MgCl2, 1 mM DTT; conditions: protein: recombinant;recombinant; tags: ;His tag (pET28a, Ni-NTA); chain copies: 2;1;1;1;1; blunt
[4] = biological target: RNA polymerase core enzyme;sigma32 E265A (E. coli;E. coli, UniProt P0A7Z4;P0A8V2;P0A8T7;P0A800;P0AGB3 1-329;1-1342;1-1407;1-91;1-284, |E265A); assay: as above; conditions: protein: recombinant;recombinant; tags: ;His tag (pET28a, Ni-NTA); chain copies: 2;1;1;1;1; blunt
[5] = biological target: RNA polymerase core enzyme;sigma32 R266A (E. coli;E. coli, UniProt P0A7Z4;P0A8V2;P0A8T7;P0A800;P0AGB3 1-329;1-1342;1-1407;1-91;1-284, |R266A); assay: as above; conditions: protein: recombinant;recombinant; tags: ;His tag (pET28a, Ni-NTA); chain copies: 2;1;1;1;1; blunt
[6] = biological target: RNA polymerase core enzyme;sigma32 L253A (E. coli;E. coli, UniProt P0A7Z4;P0A8V2;P0A8T7;P0A800;P0AGB3 1-329;1-1342;1-1407;1-91;1-284, |L253A); assay: as above; conditions: protein: recombinant;recombinant; tags: ;His tag (pET28a, Ni-NTA); chain copies: 2;1;1;1;1; blunt
[7] = biological target: RNA polymerase core enzyme;sigma32 (RpoH) wild type (E. coli;E. coli, UniProt P0A7Z4;P0A8V2;P0A8T7;P0A800;P0AGB3 1-329;1-1342;1-1407;1-91;1-284, |); assay: as above; conditions: protein: recombinant;recombinant, tags: ;His tag (pET28a, Ni-NTA), chain copies: 2;1;1;1;1
[8] = biological target: T1, β′ subunit of E. coli RNAP (E. coli, UniProt P0A8T7 1-1407); assay: cryo-EM structure; σ32-RPo: RNAP core enzyme, σ32 and dnaKp1 promoter scaffold mixed at 1:4:1.2 molar ratios, 4 °C overnight, purified on Superdex 200; 20 mM Tris-HCl pH 8.0, 0.1 M NaCl, 1% glycerol, 1 mM DTT; promoter DNA present; conditions: both partners purified
T1 construct: RNA polymerase subunit beta' (RpoC), E. coli; stood in the assay as a subunit of the RNAP core enzyme; A subunit of m2; also called RNAP-β′; RpoC; source: E. coli BL21(DE3), co-expressed from pET28a-rpoA-rpoB-rpoC-rpoZ, purified as part of the RNAP core enzyme

[9] = biological target: T2, β subunit of E. coli RNAP (E. coli, UniProt P0A8V2 2-1342); assay: as above; conditions: both partners purified
T2 construct: RNA polymerase subunit beta (RpoB), E. coli; stood in the assay as a subunit of the RNAP core enzyme; A subunit of m2; also called RpoB; bears the β-flap tip helix (βFTH); source: E. coli BL21(DE3), co-expressed from pET28a-rpoA-rpoB-rpoC-rpoZ, purified as part of the RNAP core enzyme

## CCTTGAAGACGTGGTTTACGACCCCATTTAGTAG / GGGGTCGTAAACCACGTCTTCAAGG [long promoter DNA, -35 to -10 bubble]
[1]
  Kd: 9.22 nM
[2]
  Kd: 8.34 nM

B1: short -35 element DNA (dsDNA)
DNA 1: CCTTGAAGACGTGG
DNA 2: CCACGTCTTCAAGG
[3]
  Kd: 46.7 nM
[4]
  Kd: 45.9 nM
[5]
  Kd: 54.9 nM
[6]
  Kd: 38.8 nM
[7]; blunt
  Kd: 28.4 nM

B2: E. coli σ^32 (natural protein)
chain: MTDKMQSLALAPVGNLDSYIRAANAWPMLSADEERALAEKLHYHGDLEAAKTLILSHLRFVVHIARNYAGYGLPQADLIQEGNIGLMKAVRRFNPEVGVRLVSFAVHWIKAEIHEYVLRNWRIVKVATTKAQRKLFFNLRKTKQRLGWFNQDEVEMVARELGVTSKDVREMESRMAAQDMTFDLSSDDDSDSQPMAPVLYLQDKSSNFADGIEDDNWEEQAANRLTDAMQGLDERSQDIIRARWLDEDNKSTLQELADRYGVSAERVRQLEKNAMKKLRAAIEA
notes: RNA polymerase sigma factor σ32 (RpoH), E. coli; the N-terminus was not modelled in the structure; the tag and its end are not described; also called sigma 32; RpoH; source: E. coli BL21(DE3), plasmid pET28a-rpoH, purified (Ni-NTA, HiTrap Heparin)
[8]
  binding result: binds
[9]
  binding result: binds

B3: long promoter DNA, -35 to -10 bubble (mixed)
DNA 1: CCTTGAAGACGTGGTTTACGACCCCATTTAGTAG
DNA 2: GGGGTCGTAAACCACGTCTTCAAGG
[7]; 25 bp duplex, 3' overhang 9 nt on S5 (fork-junction type)
  Kd: 14.9 nM
